Measurements: PMC10786891, “Massively parallel profiling of RNA-targeting CRISPR-Cas13d”

T1: EsCas13d, nuclease-dead (Eubacterium siraeum, UniProt B0MS50, R295A;H300A;R849A;H854A)
T1 sequence: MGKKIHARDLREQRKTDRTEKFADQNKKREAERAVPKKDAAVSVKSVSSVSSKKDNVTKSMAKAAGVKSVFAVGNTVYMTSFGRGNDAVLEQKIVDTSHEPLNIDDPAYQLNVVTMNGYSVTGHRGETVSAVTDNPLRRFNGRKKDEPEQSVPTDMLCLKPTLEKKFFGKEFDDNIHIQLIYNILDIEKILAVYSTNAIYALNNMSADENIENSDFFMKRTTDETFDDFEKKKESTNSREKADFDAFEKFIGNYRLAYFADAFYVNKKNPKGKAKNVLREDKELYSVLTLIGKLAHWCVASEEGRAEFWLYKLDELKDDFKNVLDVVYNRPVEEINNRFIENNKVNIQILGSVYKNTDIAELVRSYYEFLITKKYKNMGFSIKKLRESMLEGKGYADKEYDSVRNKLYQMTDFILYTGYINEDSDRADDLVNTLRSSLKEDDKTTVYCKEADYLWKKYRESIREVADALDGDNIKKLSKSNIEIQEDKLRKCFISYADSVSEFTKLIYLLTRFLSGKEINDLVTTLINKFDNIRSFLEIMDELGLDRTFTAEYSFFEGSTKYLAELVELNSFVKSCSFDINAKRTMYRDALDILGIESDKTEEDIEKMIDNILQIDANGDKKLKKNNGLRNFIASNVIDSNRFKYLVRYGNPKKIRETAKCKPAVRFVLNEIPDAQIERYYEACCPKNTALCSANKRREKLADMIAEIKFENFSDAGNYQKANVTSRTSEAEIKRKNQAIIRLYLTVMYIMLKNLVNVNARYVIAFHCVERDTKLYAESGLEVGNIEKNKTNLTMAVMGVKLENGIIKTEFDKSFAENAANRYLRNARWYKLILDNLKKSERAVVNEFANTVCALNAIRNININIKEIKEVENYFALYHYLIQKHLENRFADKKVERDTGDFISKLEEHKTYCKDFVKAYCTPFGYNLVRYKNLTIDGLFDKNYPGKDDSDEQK


biological target: T1, EsCas13d, nuclease-dead; assay: crRNA (strand 1, pre-loaded); Mg2+; 40 mM Tris-HCl pH 7.5, 150 mM NaCl, 6 mM MgCl2, 1 mM DTT, 0.1% Tween-20, 0.2 mg/ml BSA; 25 C; 10 min per concentration, then washed; details: tags: His6-TwinStrep-SUMO cleaved; N-terminal SNAP kept (SNAP-Surface 488); label: 3' end held by stalled T7 RNA polymerase

Binder | Kd
target 1 complement block 3-9 (mixed) RNA 1: CACCCGUGCAAAAAUGCAGGGGUCUAAAACUGAGCGGAUAACCUCUCUAUGG RNA 2: GGGAAUGGAUCCACAUCUACGAAUUCGUACCAUAGAGAGGUUUAGGCGACACCGAGAUCGGAAGAGCACACGU | 8.8 ± 0.4 nM
target 1 MT 5'PFS AAG 3'PFS UUG (mixed) RNA 1: CACCCGUGCAAAAAUGCAGGGGUCUAAAACUGAGCGGAUAACCUCUCUAUGG RNA 2: GGGAAUGGAUCCACAUCUACGAAUUCAAGCCAUAGAGAGGUUAUCCGCUCAUUGAGAUCGGAAGAGCACACGU | 13.5 ± 2 nM
target 1 MT 5'PFS GGG 3'PFS UUG (mixed) RNA 1: CACCCGUGCAAAAAUGCAGGGGUCUAAAACUGAGCGGAUAACCUCUCUAUGG RNA 2: GGGAAUGGAUCCACAUCUACGAAUUCGGGCCAUAGAGAGGUUAUCCGCUCAUUGAGAUCGGAAGAGCACACGU | 7.3 ± 0.45 nM
target 1 MT 5'PFS UCG 3'PFS UUU (mixed) RNA 1: CACCCGUGCAAAAAUGCAGGGGUCUAAAACUGAGCGGAUAACCUCUCUAUGG RNA 2: GGGAAUGGAUCCACAUCUACGAAUUCUCGCCAUAGAGAGGUUAUCCGCUCAUUUAGAUCGGAAGAGCACACGU | 24 ± 5 nM
target 1 MT 5'PFS CCU 3'PFS AUA (mixed) RNA 1: CACCCGUGCAAAAAUGCAGGGGUCUAAAACUGAGCGGAUAACCUCUCUAUGG RNA 2: GGGAAUGGAUCCACAUCUACGAAUUCCCUCCAUAGAGAGGUUAUCCGCUCAAUAAGAUCGGAAGAGCACACGU | 21 ± 5 nM
target 1 MT 5'PFS GCA 3'PFS UUG (mixed) RNA 1: CACCCGUGCAAAAAUGCAGGGGUCUAAAACUGAGCGGAUAACCUCUCUAUGG RNA 2: GGGAAUGGAUCCACAUCUACGAAUUCGCACCAUAGAGAGGUUAUCCGCUCAUUGAGAUCGGAAGAGCACACGU | 5.14 ± 0.38 nM
target 1 U10A,G15C (mixed) RNA 1: CACCCGUGCAAAAAUGCAGGGGUCUAAAACUGAGCGGAUAACCUCUCUAUGG RNA 2: GGGAAUGGAUCCACAUCUACGAAUUCGUACCAUAGACAGGUAAUCCGCUCACCGAGAUCGGAAGAGCACACGU | 98 ± 17 nM
target 1 MT 5'PFS GGG 3'PFS UUC (mixed) RNA 1: CACCCGUGCAAAAAUGCAGGGGUCUAAAACUGAGCGGAUAACCUCUCUAUGG RNA 2: GGGAAUGGAUCCACAUCUACGAAUUCGGGCCAUAGAGAGGUUAUCCGCUCAUUCAGAUCGGAAGAGCACACGU | 16.4 ± 1.95 nM
target 1 del1 (mixed) RNA 1: CACCCGUGCAAAAAUGCAGGGGUCUAAAACUGAGCGGAUAACCUCUCUAUGG RNA 2: GGGAAUGGAUCCACAUCUACGAAUUCGUACCAUAGAGAGGUUAUCCGCUCCCGAGAUCGGAAGAGCACACGU | 39 ± 9 nM
target 1 MT 5'PFS GCA 3'PFS UUU (mixed) RNA 1: CACCCGUGCAAAAAUGCAGGGGUCUAAAACUGAGCGGAUAACCUCUCUAUGG RNA 2: GGGAAUGGAUCCACAUCUACGAAUUCGCACCAUAGAGAGGUUAUCCGCUCAUUUAGAUCGGAAGAGCACACGU | 11 ± 2.4 nM
target 1 insA 3' of 17,insA 3' of 4 (mixed) RNA 1: CACCCGUGCAAAAAUGCAGGGGUCUAAAACUGAGCGGAUAACCUCUCUAUGG RNA 2: GGGAAUGGAUCCACAUCUACGAAUUCGUACCAUAGAAGAGGUUAUCCGCAUCACCGAGAUCGGAAGAGCACACGU | 10 ± 0.7 nM
target 1 A1C,C4A (mixed) RNA 1: CACCCGUGCAAAAAUGCAGGGGUCUAAAACUGAGCGGAUAACCUCUCUAUGG RNA 2: GGGAAUGGAUCCACAUCUACGAAUUCGUACCAUAGAGAGGUUAUCCGAUCCCCGAGAUCGGAAGAGCACACGU | 7.5 ± 1 nM
target 1 MT 5'PFS GGG 3'PFS CAU (mixed) RNA 1: CACCCGUGCAAAAAUGCAGGGGUCUAAAACUGAGCGGAUAACCUCUCUAUGG RNA 2: GGGAAUGGAUCCACAUCUACGAAUUCGGGCCAUAGAGAGGUUAUCCGCUCACAUAGAUCGGAAGAGCACACGU | 32 ± 12 nM
target 1 MT 5'PFS UAG 3'PFS AAA (mixed) RNA 1: CACCCGUGCAAAAAUGCAGGGGUCUAAAACUGAGCGGAUAACCUCUCUAUGG RNA 2: GGGAAUGGAUCCACAUCUACGAAUUCUAGCCAUAGAGAGGUUAUCCGCUCAAAAAGAUCGGAAGAGCACACGU | 34 ± 7 nM
target 1 insC 3' of 16,insA 3' of 8 (mixed) RNA 1: CACCCGUGCAAAAAUGCAGGGGUCUAAAACUGAGCGGAUAACCUCUCUAUGG RNA 2: GGGAAUGGAUCCACAUCUACGAAUUCGUACCAUAGACGAGGUUAUACCGCUCACCGAGAUCGGAAGAGCACACGU | 56 ± 12 nM
target 1 MT 5'PFS UAG 3'PFS AAC (mixed) RNA 1: CACCCGUGCAAAAAUGCAGGGGUCUAAAACUGAGCGGAUAACCUCUCUAUGG RNA 2: GGGAAUGGAUCCACAUCUACGAAUUCUAGCCAUAGAGAGGUUAUCCGCUCAAACAGAUCGGAAGAGCACACGU | 34 ± 6 nM
target 1 MT 5'PFS GGG 3'PFS UUU (mixed) RNA 1: CACCCGUGCAAAAAUGCAGGGGUCUAAAACUGAGCGGAUAACCUCUCUAUGG RNA 2: GGGAAUGGAUCCACAUCUACGAAUUCGGGCCAUAGAGAGGUUAUCCGCUCAUUUAGAUCGGAAGAGCACACGU | 14.7 ± 2.05 nM
target 1 MT 5'PFS AAG 3'PFS UUC (mixed) RNA 1: CACCCGUGCAAAAAUGCAGGGGUCUAAAACUGAGCGGAUAACCUCUCUAUGG RNA 2: GGGAAUGGAUCCACAUCUACGAAUUCAAGCCAUAGAGAGGUUAUCCGCUCAUUCAGAUCGGAAGAGCACACGU | 16 ± 6 nM
target 1 MT 5'PFS CCU 3'PFS AUC (mixed) RNA 1: CACCCGUGCAAAAAUGCAGGGGUCUAAAACUGAGCGGAUAACCUCUCUAUGG RNA 2: GGGAAUGGAUCCACAUCUACGAAUUCCCUCCAUAGAGAGGUUAUCCGCUCAAUCAGAUCGGAAGAGCACACGU | 21 ± 8 nM
target 1 MT 5'PFS GGG 3'PFS CAA (mixed) RNA 1: CACCCGUGCAAAAAUGCAGGGGUCUAAAACUGAGCGGAUAACCUCUCUAUGG RNA 2: GGGAAUGGAUCCACAUCUACGAAUUCGGGCCAUAGAGAGGUUAUCCGCUCACAAAGAUCGGAAGAGCACACGU | 50.5 ± 21.5 nM
target 1 MT 5'PFS UCG 3'PFS CUA (mixed) RNA 1: CACCCGUGCAAAAAUGCAGGGGUCUAAAACUGAGCGGAUAACCUCUCUAUGG RNA 2: GGGAAUGGAUCCACAUCUACGAAUUCUCGCCAUAGAGAGGUUAUCCGCUCACUAAGAUCGGAAGAGCACACGU | 29 ± 7 nM
target 1 MT 5'PFS UAG 3'PFS AAG (mixed) RNA 1: CACCCGUGCAAAAAUGCAGGGGUCUAAAACUGAGCGGAUAACCUCUCUAUGG RNA 2: GGGAAUGGAUCCACAUCUACGAAUUCUAGCCAUAGAGAGGUUAUCCGCUCAAAGAGAUCGGAAGAGCACACGU | 45.5 ± 13 nM
target 1 MT 5'PFS AGC 3'PFS AAA (mixed) RNA 1: CACCCGUGCAAAAAUGCAGGGGUCUAAAACUGAGCGGAUAACCUCUCUAUGG RNA 2: GGGAAUGGAUCCACAUCUACGAAUUCAGCCCAUAGAGAGGUUAUCCGCUCAAAAAGAUCGGAAGAGCACACGU | ~52 nM
target 1 MT 5'PFS GCU 3'PFS AGC (mixed) RNA 1: CACCCGUGCAAAAAUGCAGGGGUCUAAAACUGAGCGGAUAACCUCUCUAUGG RNA 2: GGGAAUGGAUCCACAUCUACGAAUUCGCUCCAUAGAGAGGUUAUCCGCUCAAGCAGAUCGGAAGAGCACACGU | 36 ± 7 nM
target 1 MT 5'PFS GGG 3'PFS UUA (mixed) RNA 1: CACCCGUGCAAAAAUGCAGGGGUCUAAAACUGAGCGGAUAACCUCUCUAUGG RNA 2: GGGAAUGGAUCCACAUCUACGAAUUCGGGCCAUAGAGAGGUUAUCCGCUCAUUAAGAUCGGAAGAGCACACGU | 16.8 ± 2.55 nM
target 1 MT 5'PFS GGG 3'PFS CAG (mixed) RNA 1: CACCCGUGCAAAAAUGCAGGGGUCUAAAACUGAGCGGAUAACCUCUCUAUGG RNA 2: GGGAAUGGAUCCACAUCUACGAAUUCGGGCCAUAGAGAGGUUAUCCGCUCACAGAGAUCGGAAGAGCACACGU | 32 ± 5.5 nM
target 1 MT 5'PFS GGG 3'PFS CAC (mixed) RNA 1: CACCCGUGCAAAAAUGCAGGGGUCUAAAACUGAGCGGAUAACCUCUCUAUGG RNA 2: GGGAAUGGAUCCACAUCUACGAAUUCGGGCCAUAGAGAGGUUAUCCGCUCACACAGAUCGGAAGAGCACACGU | ~55.5 nM
target 1 MT 5'PFS GCU 3'PFS AGA (mixed) RNA 1: CACCCGUGCAAAAAUGCAGGGGUCUAAAACUGAGCGGAUAACCUCUCUAUGG RNA 2: GGGAAUGGAUCCACAUCUACGAAUUCGCUCCAUAGAGAGGUUAUCCGCUCAAGAAGAUCGGAAGAGCACACGU | 56 ± 16.5 nM
